As usually defined, the EC50 is the midpoint of the concentration-response curve. In general, IC50 refers to the concentration that gives 50% inhibition. The term koff denotes the rate constant with which the complex falls apart. By kon is commonly meant a measure of how fast the partners come together. Usually Kd stands for the concentration at which binding is half-saturated.

Where a chain is given by its changes, count along the chain named. Names may count otherwise. “And” between values parts separate entries of the source, which are not always exact repeats. Equal values may be shown once. Read-outs that look alike come from different tables or passages of the source.

Experiment [1] addresses T1, human Fn14 R56K, expressed on the cell surface (human, UniProt Q9NP84 28-129).
T1 construct: also called pYL397
In words: FACS direct binding, cells expressing the huFn14 construct, MFI.
Source text: (§1) A panel of huFn14 point mutants was made by substituting Xenopus residues into the human sequence at a number positions by site-directed mutagenesis on the pEAG2121 template (EBV expression vector for huFn14): pYL391 T33Q, pYL392 S40R, pYL393 L65Q, pYL396 M50A, pYL397 R56K, pYL398 R56P (a more drastic substitution than the Xenopus change) and pYL399 H60K.

For experiment [2], the target named is T2, human Fn14 M50A, expressed on the cell surface (human, UniProt Q9NP84 28-129).
T2 construct: also called pYL396
Described as above.
Source text: as §1

In experiment [3] the target is T3, rat Fn14, full-length, expressed on the cell surface (rat, UniProt Q9CR75 28-129 (mouse entry)).
T3 construct: also called pEAG2275
In words: direct binding FACS.
Source text: (§2) Cells were used in FACS at 2 days post-transfection, staining with monoclonal antibodies of interest (with dilution titration) and gating on green EGFP-positive living cells.
as §1

In experiment [4] the target is T4, mouse Fn14, full-length, expressed on the cell surface (mouse, UniProt Q9CR75 28-129).
T4 construct: also called murine Fn14; mu Fn14
In words: FACS titration on cells expressing surface Fn14, MFI against ng/ml anti-Fn14 mab.
Source text: as §2

Experiment [5] has as its target T4, mouse Fn14, full-length, expressed on …. In words: FACS direct binding titration on murine surface Fn14 (target per legend paragraph 91), MFI.
Source text: as §2
The target of experiment [6] is T5, human Fn14 R56P, expressed on the cell surface (human, UniProt Q9NP84 28-129).
T5 construct: also called pYL398
In words: FACS direct binding, cells expressing the huFn14 construct, MFI.
Source text: as §1

Experiment [7] has as its target T6, human Fn14 S40R, expressed on the cell surface (human, UniProt Q9NP84 28-129).
T6 construct: also called pYL392
Described as above.
Source text: as §1

In experiment [8] the target is T7, human Fn14 W42A, expressed on the cell surface (human, UniProt Q9NP84 28-129).
T7 construct: also called huFn14 W42A; pEAG2251
The experiment is described as above.
Source text: as §1

Experiment [9] deals with T8, human Fn14 H60K, expressed on the cell surface (human, UniProt Q9NP84 28-129).
T8 construct: also called pYL399
The description is as above.
Source text: as §1

Experiment [10] concerns the target T2, human Fn14 M50A, expressed on the cell …. The experiment is described as above. This is another data set of the same source.
Source text: as §1
Experiment [11] addresses T9, human Fn14 T33Q, expressed on the cell surface (human, UniProt Q9NP84 28-129).
T9 construct: also called pYL391
The experiment is described as above.
Source text: as §1

In experiment [12] the target is T10, human Fn14 L65Q, expressed on the cell surface (human, UniProt Q9NP84 28-129).
T10 construct: also called pYL393
The description is as above.
Source text: as §1

The target in experiment [13] is T11, cynomolgus monkey Fn14, full-length, expressed on the cell surface (cynomolgus monkey, UniProt Q9NP84 28-129 (human entry)).
T11 construct: also called cyno Fn14; pEAG2120
In words: FACS direct binding titration on surface Fn14, MFI.
Source text: as §2

The target in experiment [14] is T12, huFn14-huFc fusion protein (human, UniProt Q9NP84 28-80).
T12 construct: also called hFn14-hFc; bivalent Fn14-Fc; not shown: human Fc
In words: competition ELISA on coated huFn14-huFc against a constant amount of biotinylated murine P4A8, OD450; value is C (midpoint) of the printed 4-P fit, x in ng/ml. On the technique in general: In an ELISA, binding on a coated surface is turned into a signal by an enzyme label.

The target in experiment [15] is T13, human Fn14, full-length, expressed on the cell surface (human, UniProt Q9NP84 28-129).
T13 construct: Also used for Fn14 on tumour cell lines (WiDr, A375) and in tissue sections; also called huFn14; hu Fn14
In words: FACS dilution titration on 293E cells transiently overexpressing human Fn14; value is C (midpoint) of the printed 4-P fit y=(A-D)/(1+(x/C)^B)+D, x in ug/ml.

Another experiment deals with T14, mouse Fn14-mouse Fc (mouse, UniProt Q9CR75 28-80).
T14 construct: not shown: mouse Fc
In words: direct binding ELISA, mouse Fn14-mouse Fc coated at 2 µg/ml, HRP-goat anti-human IgG.

Experiment [16] concerns the target T13, human Fn14, full-length, expressed on …. In words: FACS on WiDr cells.
In experiment [17] the target is T3, rat Fn14, full-length, expressed on the …. In words: FACS direct binding titration on surface rat Fn14; value is C (midpoint) of the printed 4-P fit y=(A-D)/(1+(x/C)^B)+D, x in ng/ml.
Source text: as §2
Experiment [18] addresses T13, human Fn14, full-length, expressed on …. In words: FACS direct binding titration on surface human Fn14; value is C (midpoint) of the printed 4-P fit y=(A-D)/(1+(x/C)^B)+D, x in ng/ml.
Source text: as §2
For experiment [19], the target named is T15, soluble monomeric human Fn14 protein (ectodomain with myc and His tags) (human).
T15 construct: also called soluble Fn14 protein; soluble human Fn14
In words: SPR (Biacore), antibody amine-coupled on CM5, soluble monomeric human Fn14 0.3-30 nM as analyte, 1:1 fit. For orientation: Surface plasmon resonance follows binding to a sensor surface in real time, without labels.
Procedure: (§3) Briefly, proteins were diluted to 30 μg/ml in 10 mM acetate, pH 5.0 and 10 μl was injected over chip surfaces that had been activated with a 10 μl injection of 1:1 N-hydroxsuccinimide (NHS): 1-Ethyl-3(3-dimethylaminopropyl)-carbodiimide hydrochloride (EDC). In addition one flow cell in each experiment was left underivitized as a background control. Excess free amine groups were then capped with a 50 μl injection of 1 M Ethanolamine. Typical immobilization levels were ˜1200 RU.
(§4) Concentration series ranging from 0.3 to 30 nM, of human Fn14 were prepared in Biacore buffer #1 (10 mM HEPES pH 7.0+150 mM NaCl+3.4 mM EDTA+0.005% P-20 detergent+0.05% BSA). The amino acid sequence of the soluble Fn14 protein used in these experiments was [sequence] [sequence]. Samples were run over antibody and control surfaces in non-sequential order at a flow rate of 50 μl/min for 5 minutes followed by 15 minutes dissociation in Biacore buffer #1. After each cycle the chip was regenerated with 15 mM NaOH.
(§5) Raw data were normalized by setting the preinjection response to zero on the Y-axis and the injection start to zero on the X-axis for each concentration series. Data were further normalized by subtracting the response on the underivitized surface from the response on the active surfaces and then subtracting the buffer only response on the active surface from the binding data on the same surface (so-called ‘double referencing’ of the data). The global association and dissociation rate constants were then determined for each concentration series by fitting the data using a Marquardt-Levenberg algorithm for 1:1 binding within the Biaevaluation software. The affinity constant was calculated from the ratio of the rate constants (KD=kd/kₐ).

Experiment [20] addresses T15, soluble monomeric human Fn14 protein …. In words: SPR (Biacore), antibody amine-coupled on CM5, soluble monomeric human Fn14 0.3-30 nM as analyte, KD = kd/ka.
Procedure: as §3, §4, §5

Procedure for mouse Fn14-mouse Fc: 96 well ELISA plate was coated with 2 μg/ml of mouse Fn14-mouse Fc in sodium carbonate pH 9.5 overnight at 4° C. Plate was blocked with 3% BSA in PBS for 1 hour at room temperature.

B1: monoclonal antibody 1.P4A8.3C7 (P4A8), murine (antibody, V domains shown)
VH: QVQLQQSGPEVVRPGVSVKISCKGSGYTFTDYGMHWVKQSHAKSLEWIGVISTYNGYTNYNQKFKGKATMTVDKSSSTAYMELARLTSEDSAIYYCARAYYGNLYYAMDYWGQGTSVTVSS
VL: DIVLTQSPASLAVSLGQRATISCRASKSVSTSSYSYMHWYQQKPGQPPKLLIKYASNLESGVPARFSGSGSGTDFILNIHPVEEEDAATYYCQHSRELPFTFGSGTKLEIK
notes: Mouse hybridoma mAb (ATCC PTA-9947); also called muP4A8; murine P4A8 mAb
As to B1, the binding result in [1] and in experiment [2] was “binds” throughout.

B2: monoclonal antibody 1.P2D3.3D5 (P2D3), murine (antibody, V domains shown)
VH: not shown
VL: B1 VL with A55T, F100W, S104G
notes: Mouse hybridoma mAb (ATCC PTA-9948)
For the molecule B2, in [3], the binding result is listed as “binds”. The figures for the EC50 in experiment [4] and in [5] were 0.00478 µg/mL and 0.00226 µg/mL, respectively.

B3: monoclonal antibody P3D8, murine (antibody, V domains shown)
VH: not shown
VL: B1 VL with A55T, F100W, S104G
As to B3, in [3], the binding result is “binds”. Besides, the EC50 in experiment [5] is 0.00238 µg/mL.

B4: monoclonal antibody 1.P3G5.1E4 (P3G5), murine (antibody, V domains shown)
VH: B1 VH with M34I
VL: B1 VL with S26N
notes: Mouse hybridoma mAb (ATCC PTA-9949)
B4: the binding result in experiment [6], in [7], in experiment [8], in [9], in experiment [10] and in experiment [11] was “binds” each time. Besides, the binding result in experiment [12] and in experiment [3] was “binds” each time. Moreover, the concentration for a half-maximal effect (EC50) in experiment [5] is 0.00201 µg/mL; in [13], 0.00119 µg/mL.

B5: humanized P4A8 (H1/L2) huIgG1, kappa (antibody, V domains shown)
VH: QVQLVQSGAEVKKPGASVKVSCKGSGYTFTDYGMHWVRQAPGQGLEWMGVISTYNGYTNYNQKFKGRVTMTVDKSTSTAYMELRSLRSDDTAVYYCARAYYGNLYYAMDYWGQGTLVTVSS
VL: DIVLTQSPASLAVSLGQRATISCRASKSVSTSSYSYMHWYQQKPGQPPKLLIKYASNLESGVPARFSGSGSGTDFILNIHPMEEDDTAMYFCQHSRELPFTFGGGTKLEIKR
notes: One of the 'six versions of huP4A8' (two heavy chains by three light chains) expressed transiently in 293E cells; also called version of huP4A8 H1/L2
In [14], B5 showed an IC50 of 0.0408 µg/mL. This molecule also came in with an EC50 in experiment [15] of 0.178 µg/mL.

B6: humanized P4A8 (H1/L1) huIgG1, kappa (antibody)
heavy: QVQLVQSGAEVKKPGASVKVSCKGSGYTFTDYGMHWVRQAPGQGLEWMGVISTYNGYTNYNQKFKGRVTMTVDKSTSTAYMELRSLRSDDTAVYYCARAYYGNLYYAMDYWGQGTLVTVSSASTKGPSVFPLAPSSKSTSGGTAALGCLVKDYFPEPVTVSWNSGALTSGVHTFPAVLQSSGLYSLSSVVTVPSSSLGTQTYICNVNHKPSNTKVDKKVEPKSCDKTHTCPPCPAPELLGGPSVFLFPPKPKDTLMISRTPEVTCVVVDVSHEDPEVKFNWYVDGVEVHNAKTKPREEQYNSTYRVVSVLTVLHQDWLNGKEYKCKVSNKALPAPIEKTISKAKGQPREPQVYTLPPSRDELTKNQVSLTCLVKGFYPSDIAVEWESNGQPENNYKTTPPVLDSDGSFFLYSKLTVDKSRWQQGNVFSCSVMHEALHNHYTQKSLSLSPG
light: DIVLTQSPASLAVSLGQRATISCRASKSVSTSSYSYMHWYQQKPGQPPKLLIKYASNLESGVPARFSGSGSGTDFSLNIHPMEEDDTAMYFCQHSRELPFTFGGGTKLEIKRTVAAPSVFIFPPSDEQLKSGTASVVCLLNNFYPREAKVQWKVDNALQSGNSQESVTEQDSKDSTYSLSSTLTLSKADYEKHKVYACEVTHQGLSSPVTKSFNRGEC
notes: H1 heavy chain (pYL310) with L1 kappa light chain (pYL321); also called huP4A8; hP4A8.IgG1
Take B6: the concentration for a half-maximal effect (EC50) with mouse Fn14-mouse Fc is ~0.00679 µg/mL; in experiment [16], 0.12 nM; in experiment [17], 0.0586 µg/mL; in [18] it was 0.0766 µg/mL; in [15] it was 0.25 µg/mL. The molecule also returned a half-inhibitory concentration (IC50) in experiment [14] of 0.0352 µg/mL. Besides, the off-rate constant (koff) in experiment [19] was 0.0029 s⁻¹ and 0.003 s⁻¹. Moreover, the kon in experiment [19] is 1.7e+06 M⁻¹ s⁻¹ and 1.8e+06 M⁻¹ s⁻¹. For the same molecule, the Kd in experiment [20] was 2.6 nM and 1.7 nM.

B7: humanized P4A8 (H2/L3) huIgG1, kappa (antibody, V domains shown)
VH: B5 VH with M48I, V68A
VL: B5 VL with M89T, F91Y
notes: One of the 'six versions of huP4A8'; also called version of huP4A8 H2/L3
In turn, B7 registered an IC50 in experiment [14] of 0.0357 µg/mL. The molecule also gave a 50% effective concentration (EC50) in [15] of 0.175 µg/mL.

B8: humanized P4A8 (H1/L3) huIgG1, kappa (antibody, V domains shown)
VH: B5 VH
VL: B5 VL with M89T, F91Y
notes: One of the 'six versions of huP4A8'; also called version of huP4A8 H1/L3
B8 returned an IC50 in experiment [14] of 0.0316 µg/mL. In addition, the concentration giving a half-maximal response (EC50) in [15] was determined as 0.172 µg/mL.

B9: humanized P4A8 (H2/L1) huIgG1, kappa (antibody, V domains shown)
VH: B5 VH with M48I, V68A
VL: B5 VL with I76S
notes: One of the 'six versions of huP4A8'; also called version of huP4A8 H2/L1
As to B9, the IC50 in experiment [14] worked out at 0.0275 µg/mL. The molecule further returned an EC50 in [15] of 0.175 µg/mL.

B10: humanized P4A8 (H2/L2) huIgG1, kappa (antibody, V domains shown)
VH: B5 VH with M48I, V68A
VL: B5 VL
notes: One of the 'six versions of huP4A8'; also called version of huP4A8 H2/L2
The molecule B10 returned an IC50 in [14] of 0.0326 µg/mL. In experiment [15], this molecule came in with an EC50 of 0.179 µg/mL.

B11: humanized P4A8 (H1/L1) aglycosylated S228P/T299A huIgG4, kappa (antibody)
heavy: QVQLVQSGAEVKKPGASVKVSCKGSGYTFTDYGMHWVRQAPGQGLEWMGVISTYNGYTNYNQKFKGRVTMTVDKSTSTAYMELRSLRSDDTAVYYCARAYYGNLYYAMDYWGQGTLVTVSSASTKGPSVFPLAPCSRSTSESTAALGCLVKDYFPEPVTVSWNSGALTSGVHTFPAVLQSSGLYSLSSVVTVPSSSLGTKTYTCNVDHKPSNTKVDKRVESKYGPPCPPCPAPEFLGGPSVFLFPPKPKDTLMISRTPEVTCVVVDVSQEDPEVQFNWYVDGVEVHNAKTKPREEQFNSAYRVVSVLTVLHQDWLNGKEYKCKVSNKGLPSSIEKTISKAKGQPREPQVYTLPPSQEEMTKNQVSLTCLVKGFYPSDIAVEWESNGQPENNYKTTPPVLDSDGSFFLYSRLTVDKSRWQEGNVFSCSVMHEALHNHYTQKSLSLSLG
light: B6 light
notes: also called huP4A8-aglyG4P; hP4A8.IgG4Pagly
In turn, B11 showed an EC50 in [17] of 0.0721 µg/mL. The molecule also showed an EC50 in experiment [18] of 0.0916 µg/mL. In addition, in experiment [19], the koff was 0.0029 s⁻¹ and 0.0047 s⁻¹; the association rate constant (kon) was 2e+06 M⁻¹ s⁻¹ and 2.9e+06 M⁻¹ s⁻¹. Also, the dissociation constant Kd in experiment [20] was 3.4 nM and 2.2 nM.

Values taken from patent US20090324602A1 (Biogen, published 2009).
